Experimental data published in patent US20060073508A1.
Positions count from the first letter of the chain named. Values belong to the binder of their own block, whether it stands above or below them.

Experiments:
[1] = molecular target: Gi (endogenous G protein of the CHO cells); test: cell-based or functional assay
[2] = molecular target: Gi/Go (endogenous G proteins of the CHO cells); test: cell-based or functional assay

- inhibition of adenylyl cyclase (epinephrine) [1]: 73 % inhibition
- high affinity dissociation constant KH of epinephrine (competition with [3H]yohimbine, no GTP) [2]: 3.7 nM
- percentage of receptors in the high-affinity state (% RH) [2]: 42%
B1: wild-type human alpha-2C adrenergic receptor, P18825 1-462 (receptor)
chain: MASPALAAALAVAAAAGPNASGAGERGSGGVANASGASWGPPRGQYSAGAVAGLAAVVGFLIVFTVVGNVLVVIAVLTSRALRAPQNLFLVSLASADILVATLVMPFSLANELMAYWYFGQVWCGVYLALDVLFCTSSIVHLCAISLDRYWSVTQAVEYNLKRTPRRVKATIVAVWLISAVISFPPLVSLYRQPDGAAYPQCGLNDETWYILSSCIGSFFAPCLIMGLVYARIYRVAKRRTRTLSEKRAPVGPDGASPTTENGLGAAAGAGENGHCAPPPADVEPDESSAAAERRRRRGALRRGGRRRAGAEGGAGGADGQGAGPGAAESGALTASRSPGPGGRLSRASSRSVEFFLSRRRRARSSVCRRKVAQAREKRFTFVLAVVMGVFVLCWFPFFFIYSLYGICREACQVPGPLFKFFFWIGYCNSSLNPVIYTVFNQDFRPSFKHILFRRRRRGFRQ

- inhibition of adenylyl cyclase [1]: 60 % inhibition
- stimulation of MAP kinase (fold increase over basal) [1]: 57
B2: polymorphic Lys251 human alpha-2A adrenergic receptor, P08913 16-465 (receptor)
chain: MGSLQPDAGNASWNGTEAPGGGARATPYSLQVTLTLVCLAGLLMLLTVFGNVLVIIAVFTSRALKAPQNLFLVSLASADILVATLVIPFSLANEVMGYWYFGKAWCEIYLALDVLFCTSSIVHLCAISLDRYWSITQAIEYNLKRTPRRIKAIIITVWVISAVISFPPLISIEKKGGGGGPQPAEPRCEINDQKWYVISSCIGSFFAPCLIMILVYVRIYQIAKRRTRVPPSRRGPDAVAAPPGGTERRPKGLGPERSAGPGGAEAEPLPTQLNGAPGEPAPAGPRDTDALDLEESSSSDHAERPPGPRRPERGPRGKGKARASQVKPGDSLPRRGPGATGIGTPAAGPGEERVGAAKASRWRGRQNREKRFTFVLAVVIGVFVVCWFPFFFTYTLTAVGCSVPRTLFKFFFWFGYCNSSLNPVIYTIFNHDFRRAFKKILCRGDRKRIV

- inhibition of adenylyl cyclase [1]: 46 % inhibition
- stimulation of MAP kinase (fold increase over basal) [1]: 15
B3: wild-type Asn251 human alpha-2A adrenergic receptor, P08913 16-465 (receptor)
chain: B2 chain with K251N

- inhibition of adenylyl cyclase (epinephrine) [1]: 10 % inhibition
- high affinity dissociation constant KH of epinephrine (competition with [3H]yohimbine, no GTP) [2]: 7.3 nM
- percentage of receptors in the high-affinity state (% RH) [2]: 31%
B4: Del322-325 human alpha-2C adrenergic receptor, P18825 1-462 (receptor)
chain: MASPALAAALAVAAAAGPNASGAGERGSGGVANASGASWGPPRGQYSAGAVAGLAAVVGFLIVFTVVGNVLVVIAVLTSRALRAPQNLFLVSLASADILVATLVMPFSLANELMAYWYFGQVWCGVYLALDVLFCTSSIVHLCAISLDRYWSVTQAVEYNLKRTPRRVKATIVAVWLISAVISFPPLVSLYRQPDGAAYPQCGLNDETWYILSSCIGSFFAPCLIMGLVYARIYRVAKRRTRTLSEKRAPVGPDGASPTTENGLGAAAGAGENGHCAPPPADVEPDESSAAAERRRRRGALRRGGRRRAGAEGGAGGADGQGAAESGALTASRSPGPGGRLSRASSRSVEFFLSRRRRARSSVCRRKVAQAREKRFTFVLAVVMGVFVLCWFPFFFIYSLYGICREACQVPGPLFKFFFWIGYCNSSLNPVIYTVFNQDFRPSFKHILFRRRRRGFRQ
